This note sets out measurements from patent publication US20080118529.

For series [1], the target named is Glycated haemoglobin (Hb-AGE).
Series [2] deals with T1, amyloid fragment of transthyretin.
T1 chain: YTIAALLSPYS

In series [3] the target is T2, laminin α1-chain (2097-2108) amyloid core peptide.
T2 chain: AASIKVAVSADR

Series [4] has as its target T3, mouse non-amyloidogenic IAPP (20-29) core.
T3 chain: SNNLGPVLPP

The target of series [5] is recombinant human collagen XVIII fragment endostatin (Entremed, Inc), P39060.
Sequence of recombinant human collagen XVIII fragment endostatin (Entremed, Inc), P39060 (P39060 whole entry, looked up, the tested form may be a part): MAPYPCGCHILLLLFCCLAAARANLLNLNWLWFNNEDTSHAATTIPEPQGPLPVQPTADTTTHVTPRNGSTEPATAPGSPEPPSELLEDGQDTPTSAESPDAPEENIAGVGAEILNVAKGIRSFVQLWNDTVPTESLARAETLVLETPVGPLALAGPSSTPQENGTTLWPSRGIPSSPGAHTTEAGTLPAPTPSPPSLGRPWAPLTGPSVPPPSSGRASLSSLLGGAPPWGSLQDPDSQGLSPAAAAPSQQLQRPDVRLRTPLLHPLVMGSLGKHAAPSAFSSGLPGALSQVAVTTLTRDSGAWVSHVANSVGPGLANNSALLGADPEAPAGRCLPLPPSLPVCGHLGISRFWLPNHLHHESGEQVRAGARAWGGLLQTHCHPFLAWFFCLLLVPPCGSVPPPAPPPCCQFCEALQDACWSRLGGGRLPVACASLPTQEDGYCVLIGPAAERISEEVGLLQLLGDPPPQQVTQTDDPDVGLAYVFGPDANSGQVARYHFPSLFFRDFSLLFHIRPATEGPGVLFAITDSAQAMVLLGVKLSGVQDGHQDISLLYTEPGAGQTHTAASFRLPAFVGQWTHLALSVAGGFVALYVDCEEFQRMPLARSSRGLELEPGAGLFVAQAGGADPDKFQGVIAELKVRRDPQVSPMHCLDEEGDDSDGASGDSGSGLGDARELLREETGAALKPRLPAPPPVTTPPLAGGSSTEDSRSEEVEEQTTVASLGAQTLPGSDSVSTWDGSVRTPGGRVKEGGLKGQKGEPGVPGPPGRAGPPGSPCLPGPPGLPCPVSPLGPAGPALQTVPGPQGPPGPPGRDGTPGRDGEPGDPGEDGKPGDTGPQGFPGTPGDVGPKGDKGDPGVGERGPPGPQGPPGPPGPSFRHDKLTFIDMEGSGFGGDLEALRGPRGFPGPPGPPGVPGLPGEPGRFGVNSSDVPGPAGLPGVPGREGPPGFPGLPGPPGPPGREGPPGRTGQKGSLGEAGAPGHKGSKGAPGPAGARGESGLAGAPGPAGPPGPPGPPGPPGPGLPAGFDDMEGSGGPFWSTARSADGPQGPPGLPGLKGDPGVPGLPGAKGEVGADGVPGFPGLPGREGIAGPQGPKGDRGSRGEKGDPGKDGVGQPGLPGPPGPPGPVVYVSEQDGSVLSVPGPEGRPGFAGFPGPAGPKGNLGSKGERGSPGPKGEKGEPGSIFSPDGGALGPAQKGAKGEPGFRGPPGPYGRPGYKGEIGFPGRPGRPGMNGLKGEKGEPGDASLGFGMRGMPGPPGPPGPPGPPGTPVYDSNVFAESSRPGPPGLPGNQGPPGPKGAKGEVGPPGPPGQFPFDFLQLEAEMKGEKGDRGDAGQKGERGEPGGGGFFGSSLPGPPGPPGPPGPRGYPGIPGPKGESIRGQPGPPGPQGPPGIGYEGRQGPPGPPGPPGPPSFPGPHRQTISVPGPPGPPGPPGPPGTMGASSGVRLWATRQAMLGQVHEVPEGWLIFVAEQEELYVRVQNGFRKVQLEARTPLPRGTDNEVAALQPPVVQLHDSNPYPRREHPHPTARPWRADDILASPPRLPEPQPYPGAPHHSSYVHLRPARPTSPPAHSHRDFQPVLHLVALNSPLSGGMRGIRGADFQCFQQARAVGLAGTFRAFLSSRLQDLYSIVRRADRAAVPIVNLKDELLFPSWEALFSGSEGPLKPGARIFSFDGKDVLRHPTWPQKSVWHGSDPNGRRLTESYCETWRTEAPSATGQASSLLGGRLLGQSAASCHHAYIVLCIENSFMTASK
The target in series [6] is T4, non-amyloid fragment FP10 of human fibrin α-chain (148-157).
T4 chain: KRLEVDIDIK

Series [7] concerns the target T5, amyloid fibrin peptide FP13 K157G, P02671.
T5 chain: KVQHIQLLQGNVR

The target of series [8] is albumin (ICN, 160069), P02769.
Sequence of albumin (ICN, 160069), P02769 (P02769 25-607): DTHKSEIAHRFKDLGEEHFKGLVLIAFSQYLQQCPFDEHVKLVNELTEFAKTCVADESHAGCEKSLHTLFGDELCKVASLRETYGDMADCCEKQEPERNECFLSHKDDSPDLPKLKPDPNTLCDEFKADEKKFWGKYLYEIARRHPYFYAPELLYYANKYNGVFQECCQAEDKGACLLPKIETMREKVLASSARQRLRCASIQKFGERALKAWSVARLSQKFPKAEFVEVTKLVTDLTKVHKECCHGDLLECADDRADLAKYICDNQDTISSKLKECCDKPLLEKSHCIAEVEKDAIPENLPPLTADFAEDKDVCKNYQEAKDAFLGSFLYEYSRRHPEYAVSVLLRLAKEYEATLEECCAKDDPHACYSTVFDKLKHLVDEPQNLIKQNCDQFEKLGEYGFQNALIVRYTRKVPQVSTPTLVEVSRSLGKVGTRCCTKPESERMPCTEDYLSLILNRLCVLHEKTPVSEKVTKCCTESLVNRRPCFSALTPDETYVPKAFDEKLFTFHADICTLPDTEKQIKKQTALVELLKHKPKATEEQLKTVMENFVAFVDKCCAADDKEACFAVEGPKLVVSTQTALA
In series [9] the target is T6, Amyloid-like misfolded OVA (DOVA), obtained by cyclic thermal misfolding, P01012.
T6 chain: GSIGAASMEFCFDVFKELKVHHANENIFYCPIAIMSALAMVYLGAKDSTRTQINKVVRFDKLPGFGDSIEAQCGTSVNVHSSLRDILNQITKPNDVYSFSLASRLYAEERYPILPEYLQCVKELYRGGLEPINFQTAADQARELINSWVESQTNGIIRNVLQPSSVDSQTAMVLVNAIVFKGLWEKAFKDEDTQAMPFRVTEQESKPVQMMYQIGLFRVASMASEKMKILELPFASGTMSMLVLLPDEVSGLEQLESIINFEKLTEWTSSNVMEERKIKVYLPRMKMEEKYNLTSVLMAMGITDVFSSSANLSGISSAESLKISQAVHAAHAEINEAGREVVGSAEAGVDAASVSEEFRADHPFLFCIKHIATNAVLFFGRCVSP

In series [10] the target is T7, recombinant human β2-glycoprotein I (made in insect cells), P02749.
T7 chain: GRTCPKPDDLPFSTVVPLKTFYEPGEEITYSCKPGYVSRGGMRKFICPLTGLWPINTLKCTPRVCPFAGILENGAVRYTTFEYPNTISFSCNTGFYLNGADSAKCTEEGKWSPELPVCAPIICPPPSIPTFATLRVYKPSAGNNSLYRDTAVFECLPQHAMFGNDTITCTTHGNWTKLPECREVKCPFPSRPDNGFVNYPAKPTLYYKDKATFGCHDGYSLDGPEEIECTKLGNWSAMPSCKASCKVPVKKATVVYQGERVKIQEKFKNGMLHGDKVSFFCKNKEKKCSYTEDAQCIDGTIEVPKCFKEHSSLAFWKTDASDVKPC

Series [11] deals with T8, β2-glycoprotein I purified from fresh human plasma, P02749.
T8 chain: T7 chain

The target in series [12] is Native murine serum albumin (nMSA, #126674, Calbiochem), P07724.
Sequence of Native murine serum albumin (nMSA, #126674, Calbiochem), P07724 (P07724 25-608): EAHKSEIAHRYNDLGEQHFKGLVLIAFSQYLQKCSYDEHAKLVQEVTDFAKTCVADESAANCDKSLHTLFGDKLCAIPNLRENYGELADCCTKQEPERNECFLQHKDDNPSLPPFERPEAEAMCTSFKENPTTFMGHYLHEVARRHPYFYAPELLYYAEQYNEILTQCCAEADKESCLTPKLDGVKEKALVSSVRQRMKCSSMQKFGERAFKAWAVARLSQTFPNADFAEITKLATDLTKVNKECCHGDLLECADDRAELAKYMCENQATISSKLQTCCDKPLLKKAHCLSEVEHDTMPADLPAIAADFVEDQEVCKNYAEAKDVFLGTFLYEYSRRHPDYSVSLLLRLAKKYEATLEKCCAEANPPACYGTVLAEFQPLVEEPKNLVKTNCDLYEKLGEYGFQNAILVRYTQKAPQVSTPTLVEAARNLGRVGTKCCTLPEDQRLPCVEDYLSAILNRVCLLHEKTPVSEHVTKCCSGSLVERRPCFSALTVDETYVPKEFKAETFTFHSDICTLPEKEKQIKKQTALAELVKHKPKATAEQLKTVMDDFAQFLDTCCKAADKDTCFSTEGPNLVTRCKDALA
Series [13] addresses native human glucagon (freshly dissolved), P01275.
Series [14] has as its target heat/acid-denatured human glucagon (Glucagen, Novo Nordisk), P01275.
Series [15] deals with T9, Ovalbumin (chicken egg albumin, OVA, Sigma A5503), carefully dissolved, P01012.
T9 chain: T6 chain

The target of series [16] is T10, human β2-Glycoprotein I pre-incubated with cardiolipin vesicles (CL-β2gpi), P02749.
T10 chain: T7 chain

Sequence of heat/acid-denatured human glucagon (Glucagen, Novo Nordisk), P01275 (P01275 53-81): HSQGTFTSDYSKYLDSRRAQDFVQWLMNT

B1: human factor XII from plasma (Calbiochem, #233490) (protein)
chain: IPPWEAPKEHKYKAEEHTVVLTVTGEPCHFPFQYHRQLYHKCTHKGRPGPQPWCATTPNFDQDQRWGYCLEPKKVKDHCSKHSPCQKGGTCVNMPSGPHCLCPQHLTGNHCQKEKCFEPQLLRFFHKNEIWYRTEQAAVARCQCKGPDAHCQRLASQACRTNPCLHGGRCLEVEGHRLCHCPVGYTGAFCDVDTKASCYDGRGLSYRGLARTTLSGAPCQPWASEATYRNVTAEQARNWGLGGHAFCRNPDNDIRPWCFVLNRDRLSWEYCDLAQCQTPTQAAPPTPVSPRLHVPLMPAQPAPPKPQPTTRTPPQSQTPGALPAKREQPPSLTRNGPLSCGQRLRKSLSSMTRVVGGLVALRGAHPYIAALYWGHSFCAGSLIAPCWVLTAAHCLQDRPAPEDLTVVLGQERRNHSCEPCQTLAVRSYRLHEAFSPVSYQHDLALLRLQEDADGSCALLSPYVQPVCLPSGAARPSETTLCQVAGWGHQFEGAEEYASFLQEAQVPFLSLERCSAPDVHGSSILPGMLCAGFLEGGTDACQGDSGGPLVCEDQAAERRLTLQGIISWGSGCGDRNKPGVYTDVAYYLAWIREHTVS
For the protein B1, the “auto-activation of purified factor XII, substrate S-2222” value in series [1] was “All three amyloid-like aggregates are able to induce factor XII auto-activation. FP13 K157G and Hb-AGE have a potency to induce auto-activation that is similar to the established surface activator DXS500k”; in series [7], “All three amyloid-like aggregates are able to induce factor XII auto-activation. FP13 K157G and Hb-AGE have a potency to induce auto-activation that is similar to the established surface activator DXS500k”. Further, the “activation of factor XII, detected by the conversion of Chromozym-PK” value in series [2] is “cross-β structure conformation rich peptides laminin (LAM12) and transthyretin (TTR11) stimulate factor XII activation, to a similar extent as kaolin”; in series [3] it was “cross-β structure conformation rich peptides laminin (LAM12) and transthyretin (TTR11) stimulate factor XII activation, to a similar extent as kaolin”; in series [4], “non-amyloid controls fibrin fragment FP10 and non-amyloid murine islet amyloid polypeptide mIAPP do not activate factor XII”; in [6], “non-amyloid controls fibrin fragment FP10 and non-amyloid murine islet amyloid polypeptide mIAPP do not activate factor XII”. In addition, the “factor XII and subsequent prekallikrein activity (Chromozym-PK)” value was “Neither albumin or endostatin alone, nor kaolin or DXS500k alone are efficient activators of factor XII, whereas combinations of adjuvant and protein cofactor results in factor XII and subsequent prekallikrein activity” in series [5]; “Neither albumin or endostatin alone, nor kaolin or DXS500k alone are efficient activators of factor XII, whereas combinations of adjuvant and protein cofactor results in factor XII and subsequent prekallikrein activity” in series [8].

B2: Tissue-type plasminogen activator (tPA, Actilyse, Boehringer-Ingelheim) (protein)
chain: SYQVICRDEKTQMIYQQHQSWLRPVLRSNRVEYCWCNSGRAQCHSVPVKSCSEPRCFNGGTCQQALYFSDFVCQCPEGFAGKCCEIDTRATCYEDQGISYRGTWSTAESGAECTNWNSSALAQKPYSGRRPDAIRLGLGNHNYCRNPDRDSKPWCYVFKAGKYSSEFCSTPACSEGNSDCYFGNGSAYRGTHSLTESGASCLPWNSMILIGKVYTAQNPSAQALGLGKHNYCRNPDGDAKPWCHVLKNRRLTWEYCDVPSCSTCGLRQYSQPQFRIKGGLFADIASHPWQAAIFAKHRRSPGERFLCGGILISSCWILSAAHCFQERFPPHHLTVILGRTYRVVPGEEEQKFEVEKYIVHKEFDDDTYDNDIALLQLKSDSSRCAQESSVVRTVCLPPADLQLPDWTECELSGYGKHEALSPFYSERLKEAHVRLYPSSRCTSQHLLNRTVTDNMLCAGDTRSGGPQANLHDACQGDSGGPLVCLNDGRMTLVGIISWGLGCGQKDVPGVYTKVTNYLDWIRDNMRP
For B2, the tPA/plasminogen activation assay entry in [9] was “After cyclic thermal misfolding, however, signals representative for crossbeta structure are far more pronounced with denatured OVA”; in [15] it was “OVA displays characteristics that are a hallmark for the presence of at least a fraction of the molecules with crossbeta structure, as shown by ... the enhanced activation of tPA and plasminogen”. Moreover, the “tPA-mediated conversion of Plg to plasmin (substrate S-2251)” value in series [10] is recorded as “Recombinant β2GPI, but not β2GPI purified from fresh plasma stimulate tPA-mediated conversion of Plg to plasmin”; in [11] it was “Recombinant β2GPI, but not β2GPI purified from fresh plasma stimulate tPA-mediated conversion of Plg to plasmin”. The Plg-activation assay entry in series [12] is given as “also native albumin enhanced ThT fluorescence to some extent, but this was not reflected by stimulation of tPA activation”; in [13] it was “at high glucagon concentration, also native glucagon has some tPA activating potential”; in [14] it was “In this way, a potent activator of tPA was obtained”. The “chromogenic tPA/plasminogen activation assay with a plasmin substrate” value in [16] is recorded as “Exposure of human β2gpi to cardiolipin renders the mixture with tPA/plasminogen activating properties”.
